Source: US20050287542
Substitutions are numbered along the chain they refer to.

What was measured:
[1] = system: T1, PPBR4SR (PPBR4) (Artificial Sequence); experiment: EMSA
T1 sequence: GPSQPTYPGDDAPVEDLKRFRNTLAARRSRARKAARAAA

[2] = biological target: G56 (GCN4 bZIP element) (UniProt P03069); experiment: EMSA
[3] = system: p012 (Artificial Sequence); experiment: EMSA; settings: 4 C
[4] = system: p007 (Artificial Sequence); experiment: EMSA
[5] = system: p011 (Artificial Sequence); experiment: EMSA; settings: 4 C
[6] = system: T2, PPBR4-deltaSR (Artificial Sequence); experiment: EMSA; settings: hydrophobic core disrupted; scale: kcal/mol less stable than PPBR4SR-hsCRE24
T2 sequence: T1 sequence with A31L

[7] = system: p016 (Artificial Sequence); experiment: EMSA; settings: 4 C
[8] = system: T3, PPBR2SR (Artificial Sequence); experiment: EMSA; settings: physiological ionic strength, on ice
T3 sequence: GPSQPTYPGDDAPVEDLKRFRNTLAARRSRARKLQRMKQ

[9] = biological target: G27 (isolated GCN4 basic region) (UniProt P03069); experiment: EMSA
[10] = system: p007 (Artificial Sequence); settings: scale: fold average specificity ratio for hsCRE over any site in CT DNA
[11] = system: PPBR4 on phage (Artificial Sequence); experiment: pulldown; settings: phage panning, PBS, 0.1% NP-40, 2.5 ug/ml poly-dIdC, 4 C
[12] = system: aPP (avian pancreatic polypeptide) (avian); experiment: pulldown; settings: phage panning, negative control; computed from the stated 10-fold

hsCRE24 showed a Kd ([1]; PPBR4, 4 C) of 1.9 nM, a Kd ([1]; physiological ionic strength, on ice) of 1.5 nM and a binding signal (fold preference over hsCEBP24) [2] of 180. The Kd [3] was 2.5 nM, the Kd ([4]; 4 C, PBS-type buffer with 1 mM EDTA) was 0.023 nM and the Kd ([4]; 25 C) was 1.6 nM. For the same substance, the Kd [5] was 1.5 nM, the binding signal [6] was 3.2 and the Kd [7] was 0.3 nM. It also gave a Kd [8] of 5 nM, a Kd ([9]; 4 C) of 410 nM and a binding signal ([9]; lacks polyproline helix and turn, scale: kcal/mol less stable than PPBR4SR-hsCRE24) of 3.1.

For calf thymus DNA, the binding signal [10] was 4170.

With hsCEBP24 the binding signal ([1]; ddG -4.4 kcal/mol, scale: fold specificity ratio for hsCRE24 over hsCEBP24) was 2600 and the binding signal ([2]; ddG -2.9 kcal/mol, scale: fold specificity ratio for hsCRE24 over hsCEBP24) was 180.

hsCRE24 on beads showed a binding signal (fold retention over aPP phage) [11] of 10 and a binding signal (fold retention relative to PPBR4 phage) [12] of 0.1.
